This assay has as its target T1, AAD-ER (acidic activation domain fused to the LBD of the wild-type ER) (human, UniProt P03372 282-595).
T1 construct: range 282-595; Yeast two-hybrid prey; tested with or without 10^-7 M 17-beta-estradiol (E2); also called LBD of the ER; ER LBD
T1 sequence (looked up): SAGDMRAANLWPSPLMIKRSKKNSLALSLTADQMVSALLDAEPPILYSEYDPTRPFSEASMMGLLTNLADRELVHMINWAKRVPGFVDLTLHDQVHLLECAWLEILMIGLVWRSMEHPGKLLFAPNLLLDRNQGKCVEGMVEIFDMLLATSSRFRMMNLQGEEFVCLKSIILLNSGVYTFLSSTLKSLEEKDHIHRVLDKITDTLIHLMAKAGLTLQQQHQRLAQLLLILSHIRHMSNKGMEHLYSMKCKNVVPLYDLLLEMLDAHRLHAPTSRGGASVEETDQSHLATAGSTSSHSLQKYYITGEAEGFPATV
Put plainly: yeast two-hybrid.

B1: DBD alone (other, human, UniProt P03372 176-282, looked up)
chain: MESAKETRYCAVCNDYASGYHYGVWSCEGCKAFFKRSIQGHNDYMCPATNQCTIDKNRRKSCQACRLRKCYEVGMMKGGIRKDRRGGRMLKHKRQRDDGEGRGEVGS
notes: Two-hybrid bait control without a motif
For B1, the binding result is given as “no binding”.

The values above are taken from patent EP0980526B1 (IMPERIAL CANCER RESEARCH TECHNOLOGY LIMITED, dated 1998).
